The values that follow come from the RNAGym collection of RNA variant scans (doi:10.1073/pnas.2313332121).

B1: TPR 5TU (parent)
chain: GGAUCUUCUCGAUCUAACAAAAAAGACAAAUCUGCCACAAAGCUUGAGAGCAUCUUCGGAUGCAGAGGCGGCAGCCUUCGGUGGCGCGAUAGCGCCAACGUUCUCAACUAUGACACGCAAAACGCGUGCUCCGUUGAAUGGAGUUUAUCAUG

This sample holds only a part of the variants without activity. Some results are limits rather than exact numbers.

In the series the parent is B1. The series can be described thus: polymerase ribozyme fitness, log enrichment relative to wild type (log ratio); higher = more active; in vitro selection for triplet polymerase activity. The procedure, abridged: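 Mutant libraries of both subunits of a heterodimeric triplet polymerase ribozyme were PCR-built, transcribed, and selected once in triplicate, with frozen incubation at −7 °C and capture of gel-excised extended constructs on streptavidin beads before RT-PCR. Illumina sequencing of input and output libraries was filtered to genotypes with ≥10 input reads and ≥1 read per output. Fitness is the logarithm of genotype enrichment over wild-type enrichment, using inverse-variance-weighted replicate averages. The logarithm is base 2.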
In the case of C76G C93A C96A G136C, the “polymerase ribozyme fitness (log ratio)” value is at most -4.2.
Regarding G81U C85G, the “polymerase ribozyme fitness (log ratio)” value was -1.76.
The value for G80A C87U was -0.519.
The value for C76U G94U A115C C125U A147U was at most -4.2; that for C75G G86U C95U C99U was at most -4.2.
For G83A C131U U139A G143A, the “polymerase ribozyme fitness (log ratio)” value is at most -4.2.
For the variant U82C C93G, the “polymerase ribozyme fitness (log ratio)” value was -3.99.
Consider U78A C87U A91G A98C A120C U130G G141A, for which the “polymerase ribozyme fitness (log ratio)” value is at most -4.2.
As for C76A C95U C96A A97G C114U A137C, the “polymerase ribozyme fitness (log ratio)” value was at most -4.2.
For C75G C87G C93U C103G, the “polymerase ribozyme fitness (log ratio)” value was at most -4.2.
The value for G83A G141A was 0.227; that for C75G G81U C95A G152U was at most -4.2; that for G81C A137U U139G U144A was -3.35.
The value for C75A G80C C96G C99A G117A was at most -4.2; that for G83C U102G was -4.12.
The value for G83C G86A C95A A120C was at most -4.2; that for C76U G86C was -0.716; that for U82G C95G was -1.65.
On to C75U G83C A138U A142G, for which the “polymerase ribozyme fitness (log ratio)” value was at most -4.2.
The value for G74A A91C A147U U148C was at most -4.2.
With U78G G86C U102G C108U A119U G140U, the “polymerase ribozyme fitness (log ratio)” value was at most -4.2.
The value for C75G G141C was -4.12; that for A73U G141A was -2.24.
U77C G92C U139C A150U: the “polymerase ribozyme fitness (log ratio)” value was at most -4.2.
The value for G83U C95U C116U was -2.67.
The value for G81U C96U A107U U145C was -3.1; that for C76G G80U U82A G86U U104C G141C was at most -4.2; that for C76U C93G was -2.8.
In the case of U77C G143U, the “polymerase ribozyme fitness (log ratio)” value was -4.09.
For the variant C75U G94C, the “polymerase ribozyme fitness (log ratio)” value is 0.488.
Take G83A C96U: the “polymerase ribozyme fitness (log ratio)” value was -0.419.
On to G81C G141A, for which the “polymerase ribozyme fitness (log ratio)” value was -1.94.
The value for G80U G86U G100A was at most -4.2; that for G80A U82G C123A G152U was -4.06; that for G81A C93A was -2.37.
The value for U77A G84A C85U was at most -4.2; that for C79U G143U was -4.12.
For G83A C118G, the “polymerase ribozyme fitness (log ratio)” value was -0.683.
In the case of G83C A89C G126A, the “polymerase ribozyme fitness (log ratio)” value was -0.834.
Turning to C79G C96U, the “polymerase ribozyme fitness (log ratio)” value was -3.8.
The value for C76A C96U was -0.773; that for C75A was -3.85.
As for C75U, the “polymerase ribozyme fitness (log ratio)” value was -0.0565.
The value for C75G was -3.24.
The value for A73U U144C was -1.49.
Regarding C79A U144A A147C, the “polymerase ribozyme fitness (log ratio)” value is at most -4.2.
For C75U G83A A98C U134A U135A, the “polymerase ribozyme fitness (log ratio)” value was -3.58.
G83C C95U G136A C149U: the “polymerase ribozyme fitness (log ratio)” value is -2.18.
The value for U82G C85A A89G G133A A142C was at most -4.2.
The value for G83A G92U G133C A142G was -3.79; that for C76U C79U C85A G92C C132G was at most -4.2.
C79G G81U C95U A107U C108U: the “polymerase ribozyme fitness (log ratio)” value was at most -4.2.
The value for C76U U77G A147G was at most -4.2; that for G80C C87A A89C A97G U102C A137G A138G U151A was at most -4.2.
Regarding G74A G84C C95U A137C, the “polymerase ribozyme fitness (log ratio)” value was at most -4.2.
The value for C76A C96A A122C C123A was -1.55.
The value for G83A A115G G136A U144C was -3.84.
On to C75U A97G C131U U135G, for which the “polymerase ribozyme fitness (log ratio)” value is -3.18.
As to C75U G92A, the “polymerase ribozyme fitness (log ratio)” value was -2.99.
The value for G81C G88A A107C C125A C131U was at most -4.2; that for C76A A113C G141C U151A was at most -4.2; that for C76U C103A G141C was -4.16.
As for G80A G94C C125A G143A, the “polymerase ribozyme fitness (log ratio)” value was at most -4.2.
For the variant U82C A89U C96G G100A A106U C114U A137C, the “polymerase ribozyme fitness (log ratio)” value is at most -4.2.
For the variant C76A U82C U90C G94C C116U G143A, the “polymerase ribozyme fitness (log ratio)” value was at most -4.2.
The value for C79G A122U was -3.58; that for C75U G80A C85A U146C was -3.11.
U82G C93U: the “polymerase ribozyme fitness (log ratio)” value was -1.51.
With C76U G88A A91C, the “polymerase ribozyme fitness (log ratio)” value is at most -4.2.
The value for C75U G133U was -3.54; that for U82A C95U was -0.587; that for C75G U82G C87U C131G U134A was at most -4.2.
The value for C79G C87U was -3.7; that for C79U was -1.47; that for C79G was -3.75.
On to C79A, for which the “polymerase ribozyme fitness (log ratio)” value is -4.12.
The value for G83U A91C was at most -4.2.
The value for G83C A121G was -0.25; that for G81U A98G was -0.549.
Consider G81U U90C C99A A142G, for which the “polymerase ribozyme fitness (log ratio)” value was at most -4.2.
Consider G83A A119C A120U C149U, for which the “polymerase ribozyme fitness (log ratio)” value is -1.37.
The value for U78G G117C was at most -4.2; that for G81C C87U G100C G117A G126C was at most -4.2.
